According to patent US20240376222A1 (University of Texas, published 2024):

What was measured:
[1] = target: T1, human TfR extracellular domain (ECD) (human, UniProt P02786 89-760); test: phage ELISA, scFv phage on coated TfR, anti-M13-HRP, single point
T1 construct: extracellular domain; Bought protein; also called HuTfR; huTfR

[2] = target: T2, muTfR extracellular domain (ECD), His-tagged (mouse, UniProt Q62351 89-763); test: competition ELISA on coated muTfR-His against 1 nM biotinylated Ab4, streptavidin-HRP
T2 construct: extracellular domain; Bought protein (Sino Biological); also called muTfR-His; muTfR ECD
Protocol: High-binding ELISA plates (Corning) were coated with muTfR-His at 2 μg/mL overnight at 4° C. After blocking with 1% BSA PBS, individual antibodies (at designated concentrations) and 1 nM biotinylated TfR Ab4 in 1% BSA PBS were incubated with coated muTfR for 2 hours at room temperature. After washing with PBS+0.05% Tween-20, streptavidin-HRP (Jackson ImmunoResearch) was added at 1:5000 concentration and incubated for 1 hour at room temperature. After washing with PBS+0.05% Tween-20, TMB substrate (Thermo Fisher Scientific) was added and incubated for 5 min before being stopped by 1N H₂SO₄. OD values were read at 450 nm.

[3] = target: T2, muTfR extracellular domain (ECD), …; test: BLI, biotinylated VEGFA on streptavidin sensors, no antibody, then muTfR ECD
Protocol: To characterize the bispecific antibodies a BLI-based sandwich capture assay. The bispecific antibodies were first captured onto sensors via VEGF165A. After equilibrium in blank buffer, the sensor-captured bispecific antibodies were then incubated with muTfR ECD. The VEGF-Trap/TfR bispecific antibodies were shown simultaneously binding to both VEGF165 and TfR. To further validate the antigen binding, we introduced another three control groups that missed one of the three binding partners (VEGFA, Ab, or TfR). […] Finally, the flat curves without TfR confirmed the observed binding signals in curves A and E were antibodies binding to TfR.
Streptavidin sensors (Fortebio) were used to capture biotinylated VEGFA proteins (Sino Biological). During all incubation steps, samples were kept at room temperature with 1000 rpm shaking. In the VEGFA loading step, 100 nM biotinylated VEGFA proteins were incubated with the sensors for the designated time. In the bispecific antibody interaction steps, 200 nM antibodies were used. In the muTfR incubation step, 100 nM muTfR-His (Sino Biological) were used. Between incubations, the sensors were dipped into blank kinetic buffers to allow the free dissociation of proteins.

T2 sequence (Q62351 89-763): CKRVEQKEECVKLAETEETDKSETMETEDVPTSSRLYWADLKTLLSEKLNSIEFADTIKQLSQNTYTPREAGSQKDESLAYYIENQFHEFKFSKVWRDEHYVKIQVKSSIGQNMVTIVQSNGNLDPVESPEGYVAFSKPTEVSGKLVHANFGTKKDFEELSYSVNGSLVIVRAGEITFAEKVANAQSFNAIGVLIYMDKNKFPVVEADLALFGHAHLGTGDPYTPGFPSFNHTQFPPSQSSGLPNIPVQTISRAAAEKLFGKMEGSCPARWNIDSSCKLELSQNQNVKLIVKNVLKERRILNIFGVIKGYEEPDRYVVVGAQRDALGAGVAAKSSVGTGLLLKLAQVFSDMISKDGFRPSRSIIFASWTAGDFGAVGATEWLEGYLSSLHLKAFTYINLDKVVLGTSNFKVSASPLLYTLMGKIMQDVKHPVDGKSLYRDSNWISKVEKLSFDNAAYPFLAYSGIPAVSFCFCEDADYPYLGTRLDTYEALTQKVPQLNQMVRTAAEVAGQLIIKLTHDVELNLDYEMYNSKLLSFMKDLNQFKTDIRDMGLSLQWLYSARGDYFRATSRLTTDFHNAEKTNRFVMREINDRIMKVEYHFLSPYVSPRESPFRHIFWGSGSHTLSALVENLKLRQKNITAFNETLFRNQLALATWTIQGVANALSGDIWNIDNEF
T1 sequence (P02786 89-760): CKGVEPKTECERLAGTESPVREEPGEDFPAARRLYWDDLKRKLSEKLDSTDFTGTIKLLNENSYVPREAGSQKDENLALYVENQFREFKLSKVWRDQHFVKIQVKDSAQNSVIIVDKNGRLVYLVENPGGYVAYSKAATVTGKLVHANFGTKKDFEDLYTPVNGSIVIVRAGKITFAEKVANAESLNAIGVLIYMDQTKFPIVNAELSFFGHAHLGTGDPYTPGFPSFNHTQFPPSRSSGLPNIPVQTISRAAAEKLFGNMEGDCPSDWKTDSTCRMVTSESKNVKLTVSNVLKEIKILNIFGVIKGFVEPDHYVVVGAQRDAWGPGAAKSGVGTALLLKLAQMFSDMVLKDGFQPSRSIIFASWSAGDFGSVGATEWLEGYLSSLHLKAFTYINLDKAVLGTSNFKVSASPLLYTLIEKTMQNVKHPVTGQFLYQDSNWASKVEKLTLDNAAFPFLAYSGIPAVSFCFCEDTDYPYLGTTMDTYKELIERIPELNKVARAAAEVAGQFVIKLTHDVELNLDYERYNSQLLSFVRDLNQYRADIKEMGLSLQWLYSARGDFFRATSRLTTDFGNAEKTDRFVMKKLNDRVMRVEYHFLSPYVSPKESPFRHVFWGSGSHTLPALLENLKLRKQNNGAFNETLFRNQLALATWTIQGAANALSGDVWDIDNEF

B1: 3H8 (antibody, V domains shown)
VH: QVQLVQSGAEVKKPGESLRISCKGSGYSFTSYWISWVRQMPGKGLEWMGRIDPSDSYTNYSPSFQGHVTISADKSISTAYLQWSSLKASDTAMYYCARHPPRSTRGDYGMDVWGQGTMVTVSS
VL: QAVVTQPPSVSGTPGQRVTISCSGSNSNIGSYIVNWYQQLPGTAPKLLIWGNDRRPSGVPDRVSASKSGTSASLAISGLQSEDEGDYYCAAWDNILNNYVFGPGTQLTVL
notes: Human IgG1, converted from a phage scFv clone
[1]
  binding result: binds

B2: VEGF-Trap (Fc fusion, UniProt P17948 129-230, looked up)
chain: SDTGRPFVEMYSEIPEIIHMTEGRELVIPCRVTSPNITVTLKKFPLDTLIPDGKRIIWDSRKGFIISNATYKEIGLLTCEATVNGHLYKTNYLTHRQTNTIIDVVLSPSHGIELSVGEKLVLNCTARTELNVGIDFNWEYPSSKHQHKKLVNRDLKTQSGSEMKKFLSTLTIDGVTRSDQGLYTCAASSGLMTKKNSTFVRVHEK
notes: domain: D2 domain;domain: D3 domain; Designed on aflibercept; also called VEGF-Trap positive control; not shown: human Fc fragment
[2]
  binding result: no binding

B3: VEGFA (VEGF165) (ligand, human, UniProt P15692-4 27-191, looked up)
chain: APMAEGGGQNHHEVVKFMDVYQRSYCHPIETLVDIFQEYPDEIEYIFKPSCVPLMRCGGCCNDEGLECVPTEESNITMQIMRIKPHQGQHIGEMSFLQHNKCECRPKKDRARQENPCGPCSERRKHLFVQDPQTCKCSCKNTDSRCKARQLELNERTCRCDKPRR
notes: also called VEGF165A; human VEGFA
[3]
  binding result: no binding (tested: 100 nM muTfR-His)
